The text below walks through data of patent publication US20140017212.

What all share (test): cell_activity
The test system of series [1] is ZFN SBS34931. The settings on record: HepG2-C3a, paired with 33940.
The subject of series [2] is TALEN 102256.
The subject of series [3] is TALEN 102255.
Series [4] has as its system TALEN 102265.
Series [5] concerns TALEN 102266. The note with it: C17, with 102268, HepG2-C3a.
Series [6] relates to TALEN 102252.
Series [7] has as its system TALEN 102268.
Series [8] deals with TALEN 102267.
Series [9] has as its system TALEN 102264. The note with it: C63, with 102261, HepG2-C3a.
In series [10] the test system is TALEN 102253.
For series [11], the system named is TALEN 102254.
Series [12] concerns TALEN 102259.
Series [13] has as its system TALEN 102262. The note with it: C63, with 102264, HepG2-C3a.
Series [14] deals with ZFN SBS35393. The note with it: Cel-I, paired with 35370.
Series [15] deals with ZFN SBS35396. The note with it: Cel-I, paired with 35361; 31 and 29% in HepG2-C3a (Table 10).
The test system of series [16] is ZFN SBS35398. The settings on record: Cel-I, paired with 35361.
In series [17] the test system is ZFN SBS35405. The note with it: Cel-I, paired with 35370.
For series [18], the system named is ZFN SBS35399. The settings on record: Cel-I, paired with 35361.
The test system of series [19] is ZFN SBS35394. The settings on record: Cel-I, paired with 35364.
Series [20] deals with ZFN SBS35458. The settings on record: Cel-I, paired with 35428; 10 and 7% with 35426 in HepG2-C3a (Table 10).
Series [21] has as its system ZFN SBS35480. The settings on record: Cel-I, paired with 35426.
The subject of series [22] is TALEN 102263. The note with it: C63, with 102261, HepG2-C3a.
The test system of series [23] is TALEN 102257.
Series [24] relates to TALEN 102258.
In series [25] the test system is TALEN 102260.
The subject of series [26] is ZFN SBS33940. The note with it: HepG2-C3a, paired with 34931.
The test system of series [27] is TALEN 102251. The note with it: C17, with 102249, HepG2-C3a.
In series [28] the test system is TALEN 102249.
The test system of series [29] is TALEN 102250.
The subject of series [30] is TALEN 102271. The note with it: C17, with 102269, HepG2-C3a.
Series [31] has as its system TALEN 102261. The note with it: C63, with 102264, HepG2-C3a.
In series [32] the test system is ZFN SBS35426. The settings on record: Cel-I, paired with 35480.
Series [33] concerns ZFN SBS35428. The note with it: Cel-I, paired with 35480.
Series [34] concerns ZFN SBS35364. The note with it: Cel-I, paired with 35394.
The test system of series [35] is ZFN SBS35361. The note with it: Cel-I, paired with 35396; 31 and 29% in HepG2-C3a (Table 10).
The test system of series [36] is ZFN SBS35370. The settings on record: Cel-I, paired with 35405.
Series [37] deals with ZFN SBS35379. The note with it: Cel-I, paired with 35393.
For series [38], the system named is TALEN 102269. The note with it: C17, with 102271, HepG2-C3a.

“ACCAAGAAGACAGACTAAAATGAAAATA (double strand) [34931 site]” registered an activity (% modification) in [1] of 7.3. With “ATAAAGCATAGTGCAATGG (double strand) [102256 site]”, the activity (% modification) in series [2] (C17, with 102254, HepG2-C3a) was 28; in [2] (C63, with 102253, HepG2-C3a), 23. Turning to “ATAAAGCATAGTGCAATGGAT (double strand) [102255 site]”, the activity (% modification) in series [3] (C17, with 102254, HepG2-C3a) came to 43; in series [3] (C63, with 102253, HepG2-C3a) it was 21. For the sequence “ATAATTGAACATCATCCTG (double strand) [102265 site]”, the activity (% modification) in series [4] (C17, with 102267, HepG2-C3a) turned out to be 47; in series [4] (C63, with 102267, HepG2-C3a) it was 9.8. Regarding “ATAATTGAACATCATCCTGAG (double strand) [102266 site]”, in series [5], the activity (% modification) was 10. With “ATAGTGCAATGGATAGGTC (double strand) [102252 site]”, the activity (% modification) in series [6] (C17, with 102250, HepG2-C3a) turned out to be 32; in [6] (C63, with 102249, HepG2-C3a), 8.3. With “ATATTGGGCTCTGATTCCT (double strand) [102268 site]”, the activity (% modification) in series [7] (C17, with 102266, HepG2-C3a) was 10; in series [7] (C63, with 102265, HepG2-C3a), 7.9. For the sequence “ATATTGGGCTCTGATTCCTAC (double strand) [102267 site]”, the activity (% modification) in series [8] (C17, with 102265, HepG2-C3a) came to 47; in series [8] (C63, with 102265, HepG2-C3a) it was 9.8.

Turning to “ATCTAATACTCTTTTAGTGTC (double strand) [102264 site]”, in series [9], the activity (% modification) is 22.

For “ATTGAATTCATAACTATCC (double strand) [102253 site]”, the activity (% modification) came to 38 in [10] (C17, with 102255, HepG2-C3a) and 23 in [10] (C63, with 102256, HepG2-C3a).

Take “ATTGAATTCATAACTATCCCA (double strand) [102254 site]”: the activity (% modification) was 43 in [11] (C17, with 102255, HepG2-C3a) and 16 in [11] (C63, with 102256, HepG2-C3a).

Consider “ATTTATGAGATCAACAGCACA (double strand) [102259 site]”, for which the activity (% modification) was 18 in [12] (C17, with 102257, HepG2-C3a) and 15 in [12] (C63, with 102257, HepG2-C3a).

On to “ATTTTAGTCTGTCTTCTTG (double strand) [102262 site]”, for which the activity (% modification) in series [13] amounted to 17. For the sequence “CCTATCCATTGCACTATGCTTTATTTAA (double strand) [locus 2 right site]”, the activity (% mutated targets) is 21 in series [14]; 25 in series [15]; 22 in series [16]; 23 in series [17]; 23 in series [18]; 24 in series [19]. On to “CCTGTGCTGTTGATCTCATAAATAGAAC (double strand) [locus 3 right site]”, for which the activity (% mutated targets) in series [20] was 4.9; in series [21] it was 7. Sequence “CTAATACTCTTTTAGTGTCT (double strand) [102263 site]” had an activity (% modification) in series [22] of 16. Take “CTATGCTTTATTTAAAAAC (double strand) [102257 site]”: the activity (% modification) in [23] (C17, with 102259, HepG2-C3a) worked out at 18; in series [23] (C63, with 102259, HepG2-C3a) it was 15. For the sequence “CTATGCTTTATTTAAAAACCA (double strand) [102258 site]”, the activity (% modification) in series [24] (C17, with 102260, HepG2-C3a) was determined as 24; in [24] (C63, with 102260, HepG2-C3a) it was 11. For “CTATTTATGAGATCAACAGCA (double strand) [102260 site]”, the activity (% modification) was found to be 24 in series [25] (C17, with 102258, HepG2-C3a) and 13 in series [25] (C63, with 102257, HepG2-C3a).

The sequence “CTGTTGATAGACACTAAAAGAGTATTAG (double strand) [33940 site]” gave an activity (% modification) in series [26] of 7.3.

In series [27], “GTGCAATGGATAGGTCTTT (double strand) [102251 site]” yielded an activity (% modification) of 15.

In the case of “GTTGAAGATTGAATTCATA (double strand) [102249 site]”, the activity (% modification) in series [28] (C17, with 102251, HepG2-C3a) worked out at 15; in series [28] (C63, with 102252, HepG2-C3a), 8.3. For “GTTGAAGATTGAATTCATAAC (double strand) [102250 site]”, the activity (% modification) in series [29] (C17, with 102252, HepG2-C3a) was found to be 32; in [29] (C63, with 102252, HepG2-C3a), 8. For the sequence “TTATGCATTTGTTTCAAAA (double strand) [102271 site]”, in series [30], the activity (% modification) amounted to 14. The sequence “TTCATTTTAGTCTGTCTTCTT (double strand) [102261 site]” returned an activity (% modification) in [31] of 22. Regarding “TTGTGGTTTTTAAATAAAGCATAGTGCA (double strand) [locus 3 left site]”, the activity (% mutated targets) in series [32] came out at 7; in series [33], 6.

On to “TTTGGGATAGTTATGAATTCAATCTTCA (double strand) [locus 2 left site]”, for which the activity (% mutated targets) was 24 in [34], 25 in series [35], 23 in [36] and 21 in [37]. Consider “TTTTTCTGTAGGAATCAGA (double strand) [102269 site]”, for which, in [38], the activity (% modification) was 14.
